Experimental data published in paper doi:10.1101/2025.04.28.650926 (bioRxiv, 2025).
Like-named read-outs stand apart in the source and are kept apart here.

B1: mHSE (mutant HSE) (dsDNA)
DNA 1: CCTGGCGTAGTCCCCGCCTGGC
DNA 2: GCCAGGCGGGGACTACGCCAGG
B2: HSE (canonical three-site) (dsDNA)
DNA 1: CCTGGAATATTCCCGAACTGGC
DNA 2: GCCAGTTCGGGAATATTCCAGG
B3: HSF1-LZ4mutant (LZ4m), constitutively trimeric/ oligomeric (CT) (natural protein, human, UniProt Q00613 1-529, looked up)
chain: MDLPVGPGAAGPSNVPAFLTKLWTLVSDPDTDALICWSPSGNSFHVFDQGQFAKEVLPKYFKHNNMASFVRQLNMYGFRKVVHIEQGGLVKPERDDTEFQHPCFLRGQEQLLENIKRKVTSVSTLKSEDIKIRQDSVTKLLTDVQLMKGKQECMDSKLLAMKHENEALWREVASLRQKHAQQQKVVNKLIQFLISLVQSNRILGVKRKIPLMLNDSGSAHSMPKYSRQFSLEHVHGSGPYSAPSPAYSSSSLYAPDAVASSGPIISDITELAPASPMASPGGSIDERPLSSSPLVRVKEEPPSPPQSPRVEEASPGRPSSVDTLLSPTALIDSILRESEPAPASVTALTDARGHTDTEGRPPSPPPTSTPEKCLSVACLDKNELSDHLDAKDSNPDNRQTMLSSHGFSVDTSALLDLFSPSVTVPDMSLPDLDSSLASIQELLSPQEPPRPPEAENSSPDSGKQLVHYTAQPLFLLDPGSVDTGSNDLPVLFELGEGSYFSEGDGFAEDPTISLLTGSEPPKAKDPTVS

How the values were obtained:
[1] = biological target: T1, HSF1-WT monomer (SEC peak 3) (human, UniProt Q00613 1-529); assay: fluorescence polarization
[2] = biological target: T1, HSF1-WT monomer (SEC peak 3); assay: fluorescence polarization; remark: listed apart in the source
HSF1-ΔTAD = HSF1-ΔTAD (human, UniProt Q00613 1-409); assay: fluorescence polarization
[3] = biological target: HSF1-WT trimer/oligomer (SEC peak 1) (human, UniProt Q00613 1-529); assay: fluorescence polarization
HSF1-WT trimer/oligomer (SEC peak 1), sequence (Q00613 whole entry): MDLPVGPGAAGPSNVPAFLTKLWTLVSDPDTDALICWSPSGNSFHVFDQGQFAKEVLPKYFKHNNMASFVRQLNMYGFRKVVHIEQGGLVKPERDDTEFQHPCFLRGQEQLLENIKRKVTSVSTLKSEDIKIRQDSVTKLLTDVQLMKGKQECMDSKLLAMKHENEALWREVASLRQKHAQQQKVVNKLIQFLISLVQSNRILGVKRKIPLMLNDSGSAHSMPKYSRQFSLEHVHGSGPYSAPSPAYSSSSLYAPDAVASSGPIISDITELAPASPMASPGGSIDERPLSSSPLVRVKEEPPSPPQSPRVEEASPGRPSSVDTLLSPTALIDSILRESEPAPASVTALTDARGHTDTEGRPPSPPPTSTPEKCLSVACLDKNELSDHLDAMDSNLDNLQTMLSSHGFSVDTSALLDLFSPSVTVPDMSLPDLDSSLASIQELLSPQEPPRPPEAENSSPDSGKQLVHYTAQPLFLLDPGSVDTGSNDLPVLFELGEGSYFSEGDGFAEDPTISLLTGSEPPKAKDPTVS

HSF1-ΔLZ4-TAD [4] = biological target: T2, HSF1-ΔLZ4-TAD (human, UniProt Q00613 1-383); assay: fluorescence polarization
HSF1-LZ4m (HSF1-CT) = HSF1-LZ4m (HSF1-CT) (human, UniProt Q00613 1-529, M391K;L395P;L398R); assay: fluorescence polarization
HSF1-DBD = HSF1-DBD (human, UniProt Q00613 1-123); assay: fluorescence polarization
HSF1-ΔLZ1-3 (HSF1-CM) = HSF1-ΔLZ1-3 (HSF1-CM) (human, UniProt Q00613 1-129+204-529, internal_change); assay: fluorescence polarization
HSF1-ΔLZ4-TAD [5] = biological target: T2, HSF1-ΔLZ4-TAD; assay: fluorescence polarization; remark: listed apart in the source
native gel or EMSA = biological target: the molecule itself; assay: native gel or EMSA

| Binder | Kd [1] | Kd [2] | Kd (HSF1-ΔTAD) | Kd [3] | Kd (HSF1-ΔLZ4-TAD [4]) | Kd (HSF1-LZ4m (HSF1-CT)) | Kd (HSF1-DBD) | Kd (HSF1-ΔLZ1-3 (HSF1-CM)) | Kd (HSF1-ΔLZ4-TAD [5]) | binding result (native gel or EMSA) |
| --- | --- | --- | --- | --- | --- | --- | --- | --- | --- | --- |
| B1 | 84.8 ± 14.2 nM |  |  |  |  |  |  |  |  |  |
| B2 | 7.98 ± 1.43 nM | 56.7 ± 4.62 nM | 60.3 ± 1.13 nM | 17.1 ± 6.28 nM | 22.6 ± 1.36 nM | 25.1 ± 8.09 nM | 85.3 ± 6.29 nM | 6.57 ± 1.39 nM | 12.9 ± 0.335 nM |  |
| B3 |  |  |  |  |  |  |  |  |  | binds |
